Results as given in patent publication US20190367961A1, “MOGROL GLYCOSYLTRANSFERASE AND GENE ENCODING SAME” (SUNTORY HOLDINGS LIMITED, priority 2014, published 2019).

Assay: glucose transfer (glycosylation) activity for mogrol, product analysed by LC-IT-TOF-MS
Type: biochemical
Conditions: same enzyme conditions (0.2 mM mogrol, 2 mM UDP-glucose, 30° C., 3 hours)
Procedure: Purification was carried out using the HisTag of the recombinant protein according to an ordinary method, and glucose transfer activity for mogrol prepared by hydrolyzing a Siraitia grosvenorii extract (Takemoto, T. et al. (1983) YAKUGAKU ZASSHI 103(11), 1167-1173) was evaluated. The enzyme reaction composition was 0.2 mM mogrol as a glucose acceptor, 2 mM UDP-glucose as a glucose donor, and 50 mM calcium phosphate buffer (pH 7.5); an enzyme solution was added thereto, which was then reacted at 30° C. for 3 hours; and the product was analyzed using LC-IT-TOF-MS (Shimadzu Corporation).
Stevia-derived UGT85C2 and UGT73E1 were expressed in the same manner as in the above method. The product amount was measured under the above enzyme conditions to determine relative activity by dividing it by the expressed protein amount. As a result, the relative activities of stevia-derived UGT85C2 and UGT73E1 when the activity of SgUGT74-943 was set to 1 were 0.35 and 0.22, respectively. The glycosylation activity of Siraitia grosvenorii-derived SgUGT74-943 was confirmed to be nearly 3 times higher than those of stevia-derived UGT85C2 and UGT73E1 (FIG. 4).

Row | Molecule | relative activity (product amount divided by expressed protein amount) when the activity of SgUGT74-943 was set to 1
1 | UGT73E1: steviol glycosyltransferase derived from stevia, known to glycosylate mogrol (protein, UniProt Q6VAA9 1-495, looked up) UDP-glycosyltransferase 73E1: MSPKMVAPPTNLHFVLFPLMAQGHLVPMVDIARILAQRGATVTIITTPYHANRVRPVISRAIATNLKIQLLELQLRSTEAGLPEGCESFDQLPSFEYWKNISTAIDLLQQPAEDLLRELSPPPDCIISDFLFPWTTDVARRLNIPRLVFNGPGCFYLLCIHVAITSNILGENEPVSSNTERVVLPGLPDRIEVTKLQIVGSSRPANVDEMGSWLRAVEAEKASFGIVVNTFEELEPEYVEEYKTVKDKKMWCIGPVSLCNKTGPDLAERGNKAAITEHNCLKWLDERKLGSVLYVCLGSLARISAAQAIELGLGLESINRPFIWCVRNETDELKTWFLDGFEERVRDRGLIVHGWAPQVLILSHPTIGGFLTHCGWNSTIESITAGVPMITWPFFADQFLNEAFIVEVLKIGVRIGVERACLFGEEDKVGVLVKKEDVKKAVECLMDEDEDGDQRRKRVIELAKMAKIAMAEGGSSYENVSSLIRDVTETVRAPH | 0.22
2 | UGT85C2: steviol glycosyltransferase derived from stevia, known to glycosylate mogrol (protein, UniProt Q6VAB0 1-481, looked up) UDP-glycosyltransferase 85C2: MDAMATTEKKPHVIFIPFPAQSHIKAMLKLAQLLHHKGLQITFVNTDFIHNQFLESSGPHCLDGAPGFRFETIPDGVSHSPEASIPIRESLLRSIETNFLDRFIDLVTKLPDPPTCIISDGFLSVFTIDAAKKLGIPVMMYWTLAACGFMGFYHIHSLIEKGFAPLKDASYLTNGYLDTVIDWVPGMEGIRLKDFPLDWSTDLNDKVLMFTTEAPQRSHKVSHHIFHTFDELEPSIIKTLSLRYNHIYTIGPLQLLLDQIPEEKKQTGITSLHGYSLVKEEPECFQWLQSKEPNSVVYVNFGSTTVMSLEDMTEFGWGLANSNHYFLWIIRSNLVIGENAVLPPELEEHIKKRGFIASWCSQEKVLKHPSVGGFLTHCGWGSTIESLSAGVPMICWPYSWDQLTNCRYICKEWEVGLEMGTKVKRDEVKRLVQELMGEGGHKMRNKAKDWKEKARIAIAPNGSSSLNIDKMVKEITVLARN | 0.35
